Values of other authors in article PMC3012698, “Characterization of a Novel Interaction between Bcl-2 Members Diva and Harakiri” (PLoS ONE, 2010).

Details: ref [10]
Procedure: Circular dichroism (CD) experiments were performed on Harakiri's cytosolic domain to obtain information on its conformational behavior. […] Thus, the cytosolic domain of Harakiri is largely unstructured. Consequently, the NMR spectra of Hrk_ΔTM show small amide ^1H chemical shift dispersion (from ∼7.9 to 8.7 ppm) and severe signal overlap ( Fig. 6 ). These spectral features together with the absen ...

Row | Substance | structural state of unbound BH3-only protein | folding upon binding to Bcl-2 members
1 | Bmf: BH3-only protein Bmf | unstructured | –
2 | Bim: BH3-only protein Bim | unstructured | undergoes partial folding upon binding to Bcl-2 members
